Assay results taken from patent US20090220511A1 (RUTGERS THE STATE UNIVERSITY OF NEW JERSEY, published 2009).

Key:
[1] = target: FLAG tagged chimeric IL-10R1/CRF2-12 receptor (IL-10R1 extracellular domain fused to the transmembrane and intracellular domains of CRF2-12) on HT-29 cells (human) (UniProt Q13651); test: cell-based or functional assay
[2] = target: T1, chimeric human CRF2-12/γR1 chain expressed alone on hamster 16-9 cells (human, UniProt P15260 246-489); test: flow cytometry with anti-FLAG antibody on transfected hamster cells
T1 construct: domain: transmembrane and intracellular domains; On the cell surface of hamster 16-9 cells, without human CRF2-4; also called CRF2-12/IFN-γR1; CRF2-12/gR1
T1 sequence: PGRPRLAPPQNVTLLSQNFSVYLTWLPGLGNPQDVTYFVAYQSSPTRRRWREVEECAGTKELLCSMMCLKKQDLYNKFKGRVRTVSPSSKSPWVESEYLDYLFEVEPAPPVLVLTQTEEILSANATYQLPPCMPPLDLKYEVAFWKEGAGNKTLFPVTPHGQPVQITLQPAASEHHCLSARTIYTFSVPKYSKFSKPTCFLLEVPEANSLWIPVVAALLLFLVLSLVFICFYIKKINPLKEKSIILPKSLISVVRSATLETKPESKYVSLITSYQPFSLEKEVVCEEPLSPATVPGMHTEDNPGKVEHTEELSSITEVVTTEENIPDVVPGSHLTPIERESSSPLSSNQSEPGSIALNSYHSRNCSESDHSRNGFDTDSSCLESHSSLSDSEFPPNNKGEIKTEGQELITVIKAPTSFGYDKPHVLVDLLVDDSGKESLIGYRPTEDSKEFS
Description: (§1) A. Four cell lines used in these experiments are schematically shown (top panels): the parental Chinese hamster 16-9 cells and cells expressing the human CRF2-12/gR1 chimeric receptor or human IL-10R2 alone or both receptors together. […] The cells were also tested for their ability to bind FL-IFN-λs (panels E, F, G, H and I). The cells were incubated for three hours at 20° C. with conditioned medium from COS-1 cells transfected with one of the following plasmids: the control vector pEF-SPFL (open areas, thick lines); the pEF-FL-IFN-λ1 (FL-IFN-λ1; open areas, thin lines; panels E, F, G and H) or the pEF-FL-IFN-λ2 (FL-IFN-λ2; shaded areas, thin lines; panel I). […] Cells expressing both chains were co-incubated with either FL-IFN-λ1 or FL-IFN-λ2 ([…] of conditioned media from COS cells expressing FL-IFN-λ1/2) and with E. coli produced IFN-λ1 lacking the FLAG epitope (IFN-λ1E. coli, 1 mg/ml) (open areas, thin lines; panels H and I). Ligand binding to the cell surface was determined by flow cytometry with anti-FLAG antibody (Sigma) as the primary antibody and fluorescein isothiocyanate-conjugated goat anti-mouse IgG (Santa Cruz) as the secondary antibody. The ordinate represents relative cell numbers, and the abscissa relative fluorescence (logarithmic scale).

[3] = target: T2, intact human CRF2-4 chain expressed alone on hamster 16-9 cells (human, UniProt Q08334 20-325); test: as above
T2 construct: whole, on cells; From plasmid pEF-CRF2-4 (pEF-IL-10R2), on hamster 16-9 cells without CRF2-12/γR1; also called IL-10R2
T2 sequence (looked up): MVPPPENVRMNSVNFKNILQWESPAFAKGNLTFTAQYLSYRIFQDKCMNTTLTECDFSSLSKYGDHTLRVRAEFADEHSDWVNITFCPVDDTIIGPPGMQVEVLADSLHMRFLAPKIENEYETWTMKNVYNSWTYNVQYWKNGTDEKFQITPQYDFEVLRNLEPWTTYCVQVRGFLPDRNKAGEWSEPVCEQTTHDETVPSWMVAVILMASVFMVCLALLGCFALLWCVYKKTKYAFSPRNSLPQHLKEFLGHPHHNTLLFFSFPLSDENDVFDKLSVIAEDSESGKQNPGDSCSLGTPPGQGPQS
Description: as §1

[4] = target: the molecule itself; test: crosslinking of the 32P-labeled ligand to itself in solution, SDS-PAGE
Description: (§2) Untreated 32P-labeled FL-IFN-λ1-P ([32P]FL-IFN-λ1-P) was loaded as a control (lane 1). ([32P]FL-IFN-λ1-P) was also incubated in DMEM medium with 10% FBS and crosslinking in solution was performed as described (32) (lane 2). The untransfected and transfected hamster cells described in FIG. 22 row 1 were incubated with 32P-labeled FL-IFN-λ1-P with or without addition of a 100-fold excess of unlabeled IFN-λ1 (competitor), washed, harvested and crosslinked. The extracted crosslinked complexes were analyzed on 7.5% SDS-PAGE. The molecular weight markers are shown on the left.
(§3) In another embodiment of the present invention, the interaction between IFN-λ and its receptor was characterized by crosslinking (FIG. 22). Crosslinking experiments were performed with radiolabeled IFN-λ (FIGS. 20B and C) and the IFN-λ receptor chains expressed in hamster cells (FIG. 22). COS cell-expressed FL-IFN-λ1-P was purified to homogeneity and radiolabeled (FIGS. 20B and C). […] FL-IFN-λ1-P was labeled with [32P]ATP and used for crosslinking to cells as described (Li, et al., (1989) Proc Natl Acad Sci USA 86, 558-562; Kotenko, et al., (1995) J Biol Chem 270, 20915-20921; Pestka, et al., (1999) Protein Expr Purif 17, 203-214; Kotenko, et al., (2001) J Immunol 166, 7096-7103).

[5] = target: T1, chimeric human CRF2-12/γR1 chain …; test: crosslinking of 32P-labeled ligand to transfected hamster cells, 7.5% SDS-PAGE
Description: as §2
as §3, with “7096-7103). […]” for “7096-7103).”

[6] = target: T2, intact human CRF2-4 chain expressed …; test: as above
Description: as §2
as §3, with “7096-7103). […]” for “7096-7103).”

Sequence of FLAG tagged chimeric IL-10R1/CRF2-12 receptor (IL-10R1 extracellular domain fused to the transmembrane and intracellular domains of CRF2-12) on HT-29 cells (human) (Q13651 other isoform, or with tags, fused parts or gaps mutant limits assumed): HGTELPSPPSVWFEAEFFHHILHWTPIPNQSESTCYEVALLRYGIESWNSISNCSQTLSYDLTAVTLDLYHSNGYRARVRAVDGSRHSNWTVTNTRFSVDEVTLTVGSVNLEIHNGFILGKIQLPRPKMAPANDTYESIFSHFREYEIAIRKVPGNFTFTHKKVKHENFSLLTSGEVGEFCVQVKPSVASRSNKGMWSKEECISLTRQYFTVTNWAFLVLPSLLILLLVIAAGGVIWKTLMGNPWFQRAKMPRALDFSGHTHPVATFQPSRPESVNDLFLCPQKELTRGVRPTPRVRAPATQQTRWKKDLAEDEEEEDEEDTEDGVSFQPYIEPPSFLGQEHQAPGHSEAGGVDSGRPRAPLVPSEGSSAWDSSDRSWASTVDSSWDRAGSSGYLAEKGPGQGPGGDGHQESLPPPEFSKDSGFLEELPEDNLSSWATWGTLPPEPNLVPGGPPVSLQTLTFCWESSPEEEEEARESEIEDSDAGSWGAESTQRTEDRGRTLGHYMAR

## IL-10 (from UniProt P22301 19-178) (ligand)
[1]
  MHC class I antigen induction and antiviral activity of HT-29 cells expressing FL-IL-10R1/CRF2-12: 1 ng/mL
  apoptosis of HT-29 cells expressing FL-IL-10R1/CRF2-12: > 10 ng/mL

B1: FL-IFN-λ1 (IFN-λ1 tagged at its N-terminus with the FLAG epitope) (ligand, not shown: small tags and cut ends)
chain: PTSKPTPTGKGCHIGRFKSLSPQELASFKKARDALEESLKLKNWSCSSPVFPGNWDLRLLQVRERPVALEAELALTLKVLEAAAGPALEDVLDQPLHTLHHILSQLQACIQPQPTAGPRPRGRLHHWLHRLQEAPKKESAGCLEASVTFNLFRLLTRDLKYVADGNLCLRTSTHPEST
notes: Used as conditioned medium of transiently transfected COS-1 cells; also called FL-IFN-λ1gene product
[2]
  binding result: no binding
[3]
  binding result: no binding

B2: 32P-labeled FL-IFN-λ1-P (ligand, not shown: small tags and cut ends)
chain: PTSKPTPTGKGCHIGRFKSLSPQELASFKKARDALEESLKLKNWSCSSPVFPGNWDLRLLQVRERPVALEAELALTLKVLEAAAGPALEDVLDQPLHTLHHILSQLQACIQPQPTAGPRPRGRLHHWLHRLQEAPKKESAGCLEASVTFNLFRLLTRDLKYVADGNLCLRTSTHPESTRRASVA
modifications: labeled with [32P]ATP on the C-terminal Arg-Arg-Ala-Ser-Val-Ala tag (consensus site of the cAMP-dependent protein kinase)
notes: Expressed in COS cells, purified on anti-FLAG M1 gel and radiolabeled; Primer ifnl-7R may encode extra junction residues before the RRASVA tag; also called [32P]FL-IFN-λ1-P; radiolabeled IFN-λ
[4]
  binding result: no binding
[5]
  binding result: no binding
[6]
  binding result: no binding
